Where two headings read alike, the source gives them in different places. Bridge positions count the residues as written; N and C are the ends. Square brackets hold non-standard residues; d marks the D form. Primed or numbered codes have the meaning given here. Azk = residue with azidated side chain, clicked to Pra; Pra′ = residue with alkynyl side chain, clicked to Azk
Legend:
Experiment in all cases: cell-based or functional assay
human β2AR [1] = target: T1, human β2AR (human, UniProt P07550 2-365)
human β2AR [2] = target: T1, human β2AR; remark: listed apart in the source
human β2AR [3] = target: T1, human β2AR; remark: listed apart in the source
human β2AR [4] = target: T1, human β2AR; remark: listed apart in the source
[5] = target: dopamine 1 receptor (D1R) (UniProt P21728 1-446, limits assumed)
Sequence of dopamine 1 receptor (D1R) (P21728 whole entry): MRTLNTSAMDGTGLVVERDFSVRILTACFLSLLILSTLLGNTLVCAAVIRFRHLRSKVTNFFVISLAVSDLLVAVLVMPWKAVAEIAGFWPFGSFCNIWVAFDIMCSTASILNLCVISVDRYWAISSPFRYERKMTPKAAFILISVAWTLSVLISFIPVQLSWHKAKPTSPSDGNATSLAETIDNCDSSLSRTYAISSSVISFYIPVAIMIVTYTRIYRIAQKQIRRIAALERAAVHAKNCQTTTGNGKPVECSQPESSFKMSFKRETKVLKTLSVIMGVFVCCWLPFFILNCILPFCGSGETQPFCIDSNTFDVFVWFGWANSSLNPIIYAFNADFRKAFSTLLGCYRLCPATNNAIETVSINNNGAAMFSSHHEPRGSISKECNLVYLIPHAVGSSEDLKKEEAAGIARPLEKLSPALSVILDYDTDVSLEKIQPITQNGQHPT

human β2AR [6] = target: T1, human β2AR; remark: listed apart in the source
human β2AR [7] = target: T1, human β2AR; remark: listed apart in the source
human β2AR [8] = target: T1, human β2AR; remark: listed apart in the source
human β2AR [9] = target: T1, human β2AR; remark: listed apart in the source
human β2AR [10] = target: T1, human β2AR; remark: listed apart in the source

Row | IC50 (nM) of isoproterenol, [3H]-DHA RLA, peptidomimetic present (human β2AR [1]) [nM] | IC50 (nM) of isoproterenol, [3H]-DHA RLA, peptidomimetic present (human β2AR [2]) [nM] | Shift (human β2AR [2]) | IC50 (nM) of isoproterenol, [3H]-DHA RLA, peptidomimetic present (human β2AR [3]) [nM] | Shift (human β2AR [3]) | Shift (averaged) (human β2AR [4]) | IC50 (nM) of A-77636, [3H]-SCH23390 RLA, compound 2 at 10 µM [5] [nM] | Fraction HI (%) (human β2AR [6]) | IC50 (nM) of isoproterenol, [3H]-DHA RLA, peptidomimetic present (human β2AR [6]) [nM] | Shift (human β2AR [6]) | IC50 (nM) of isoproterenol, [3H]-DHA RLA, peptidomimetic present (human β2AR [7]) [nM] | Shift (human β2AR [7]) | IC50 (nM) of isoproterenol, [3H]-DHA RLA, peptidomimetic present (human β2AR [8]) [nM] | IC50 (nM) of isoproterenol, [3H]-DHA RLA, peptidomimetic present (human β2AR [9]) [nM] | Shift (human β2AR [9]) | IC50 (nM) of isoproterenol, [3H]-DHA RLA, peptidomimetic present (human β2AR [10]) [nM] | Shift (human β2AR [10]) | Binder
1 | 38.9 | 47.3 | 20 | 37.3 | 31 | 27 |  |  |  |  |  |  |  |  |  |  |  | Ac-FN[Pra′]CRD[Azk]IQRMHLRQYELL-OH (triazole 3-7) [compound 12]
2 |  |  |  |  |  | 10 | 5.8 | 21 | 124 | 13 | 77.1 | 13 | 118 | 97.6 | 9 | 79.4 | 10 | Ac-FNDCRDIIQRMHLRQYELL-OH [compound 2]

From patent publication US20240083958A1, “G PROTEIN PEPTIDOMIMETICS” (VRIJE UNIVERSITEIT BRUSSEL, priority 2020, published 2024)
